Results reported in article PMC9521928 (2022).

Columns and labels:
[1] = target: T1, CPXV14-His (His-tagged recombinant cowpox virus Brighton Red CPXV14) (cowpox virus (Brighton Red strain)); test: BLI
[2] = target: T1, CPXV14-His (His-tagged recombinant …); test: BLI; remark: listed apart in the source

B1: soluble recombinant murine FcγRIIB (mCD32B) ectodomain (receptor)
chain: THDLPKAVVKLEPPWIQVLKEDTVTLTCEGTHNPGNSSTQWFHNGRSIRSQVQASYTFKATVNDSGEYRCQMEQTRLSDPVDLGVISDWLLLQTPQLVFLEGETITLRCHSWRNKLLNRISFFHNEKSVRYHHYSSNFSIPKANHSHSGDYYCKGSLGRTLHQSKPVTITVQGPKSSRSLP
Question: How did the Kd [1] turn out when B1 was run?
Answer: 2.94 nM

Question: And the koff [2]?
Answer: 0.00198 s⁻¹
